Reference: US20230174623A1

Target: collagen within the matrix fraction of excised B16F10 tumors
Assay: depletion of AF647-LAIR fluorescence from solution by the B16F10 tumor matrix fraction, at steady state

| decrease in solution concentration (LAIR depleted from the bath) [%] | uptake into the tumor matrix (LAIR binding sites of a tumor) [nmol] | Substance |
| --- | --- | --- |
| 20 | – | AF647-labeled LAIR |
| – | 0.2 | AF647-labeled LAIR (receptor) |
